The numbers were not newly measured in patent publication US5874218, which cites them from elsewhere.

The Kd is the concentration at which binding is half-saturated.

The series deals with T1, VEGF165 (Homo sapiens), P15692-4.
T1 sequence: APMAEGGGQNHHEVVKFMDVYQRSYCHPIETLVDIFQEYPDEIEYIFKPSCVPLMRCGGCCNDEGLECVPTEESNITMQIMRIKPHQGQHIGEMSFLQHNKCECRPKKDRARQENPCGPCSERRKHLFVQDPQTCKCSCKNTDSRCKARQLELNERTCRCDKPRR
As to conditions: modified to be nuclease resistant (Green et al. 1995); CITED; value stated for the ligand with reference to Green et al. 1995.

“NTTTTACCCUGAUGGUAGACGCCGGGGUGTTTTT [NX-244]”: the Kd is 0.14 nM.
